In the supplement of paper PMC5998384:

How the values were obtained:
HeLa Kyoto [1] = experiment: thermal stability score vs G1/S (z-score of summed log2 fold changes over temperatures); higher = more thermally stable than in G1/S
HeLa Kyoto [2] = experiment: solubility change mitosis vs G1/S (difference of NP-40 vs SDS log2 ratios) (log2 ratio difference); higher = more soluble in mitosis
HeLa Kyoto [3] = experiment: melting temperature (median over replicates), in situ; higher = more thermally stable
HeLa Kyoto [4] = experiment: solubility in G1/S (NP-40 vs SDS abundance) (log2 ratio); higher = more soluble; settings: cell cycle stage: G1/S
[5] = cell cycle stage: early G1 (4.5 h after nocodazole release)
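Throughout, for melting temperature (median over replicates), in situ: HeLa Kyoto cells synchronized by double thymidine or nocodazole block, proteins quantified by TMT10plex mass spectrometry, three independent biological replicates.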
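Throughout, for solubility change mitosis vs G1/S (difference of NP-40 vs SDS log2 ratios): synchronized HeLa Kyoto cells (double thymidine block for G1/S, nocodazole release for mitosis), protein amounts in NP-40 versus SDS lysates quantified by mass spectrometry, three biological replicates.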
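Throughout, for solubility in G1/S (NP-40 vs SDS abundance): HeLa Kyoto cells arrested at G1/S by double thymidine block, proteins quantified by TMT10plex mass spectrometry in mild NP-40 versus SDS extracts, three biological replicates.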
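Throughout, for thermal stability score vs G1/S (z-score of summed log2 fold changes over temperatures): synchronized HeLa Kyoto cells, proteins quantified by TMT10plex mass spectrometry, three biological replicates, mitosis taken 0.5 h after nocodazole release, G1/S directly after double thymidine block.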

| Sequence | thermal stability score (HeLa Kyoto [1]; [5]) | thermal stability score (HeLa Kyoto [1]; cell cycle stage: mitosis) | solubility change mitosis (log2) (HeLa Kyoto [2]) | melting temperature (HeLa Kyoto [3]; cell cycle stage: G1/S) [°C] | melting temperature (HeLa Kyoto [3]; cell cycle stage: mitosis) [°C] | solubility in G1/S (log2) (HeLa Kyoto [4]) |
| --- | --- | --- | --- | --- | --- | --- |
| MDEQAGPGVFFSNNHPGAGGAKGLGPLAEAAAAGDGAAAAGAARAQYSLPGILHFLQHEWARFEVERAQWEVERAELQAQIAFLQGERKGQENLKKDLVRRIKMLEYALKQERAKYHKLKYGTELNQGDMKPPSYDSDEGNETEVQPQQNSQLMWKQGRQLLRQYLQEVGYTDTILDVKSKRVRALLGFSSDVTDREDDKNQDSVVNGTEAEVKETAMIAKSELTDSASVLDNFKFLESAAADFSDEDEDDDVDGREKSVIDTSTIVRKKALPDSGEDRDTKEALKEFDFLVTSEEGDNESRSAGDGTDWEKEDQCLMPEAWNVDQGVITKLKEQYKKERKGKKGVKRPNRSKLQDMLANLRDVDELPSLQPSVGSPSRPSSSRLPEHEINRADEVEALTFPPSSGKSFIMGADEALESELGLGELAGLTVANEADSLTYDIANNKDALRKTWNPKFTLRSHFDGIRALAFHPIEPVLITASEDHTLKMWNLQKTAPAKKSTSLDVEPIYTFRAHKGPVLCVVMSSNGEQCYSGGTDGLIQGWNTTNPNIDPYDSYDPSVLRGPLLGHTDAVWGLAYSAAHQRLLSCSADGTLRLWNTTEVAPALSVFNDTKELGIPASVDLVSSDPSHMVASFSKGYTSIFNMETQQRILTLESNVDTTANSSCQINRVISHPTLPISITAHEDRHIKFYDNNTGKLIHSMVAHLEAVTSLAVDPNGLYLMSGSHDCSIRLWNLESKTCIQEFTAHRKKFEESIHDVAFHPSKCYIASAGADALAKVFV [STRN] | 0.0936 | -0.463 | -0.134 | 52.4 | 52.3 | 0.0488 |
| MDGKQGGMDGSKPAGPRDFPGIRLLSNPLMGDAVSDWSPMHEAAIHGHQLSLRNLISQGWAVNIITADHVSPLHEACLGGHLSCVKILLKHGAQVNGVTADWHTPLFNACVSGSWDCVNLLLQHGASVQPESDLASPIHEAARRGHVECVNSLIAYGGNIDHKISHLGTPLYLACENQQRACVKKLLESGADVNQGKGQDSPLHAVARTASEELACLLMDFGADTQAKNAEGKRPVELVPPESPLAQLFLEREGPPSLMQLCRLRIRKCFGIQQHHKITKLVLPEDLKQFLLHL [ASB9] | -0.645 | -1.33 | -0.182 | 55 | 54.2 | 0.762 |
| MDGSGPFSCPICLEPLREPVTLPCGHNFCLACLGALWPHRGASGAGGPGGAARCPLCQEPFPDGLQLRKNHTLSELLQLRQGSGPGSGPGPAPALAPEPSAPSALPSVPEPSAPCAPEPWPAGEEPVRCDACPEGAALPAALSCLSCLASFCPAHLGPHERSPALRGHRLVPPLRRLEESLCPRHLRPLERYCRAERVCLCEACAAQEHRGHELVPLEQERALQEAEQSKVLSAVEDRMDELGAGIAQSRRTVALIKSAAVAERERVSRLFADAAAALQGFQTQVLGFIEEGEAAMLGRSQGDLRRQEEQRSRLSRARQNLSQVPEADSVSFLQELLALRLALEDGCGPGPGPPRELSFTKSSQAVRAVRDMLAVACVNQWEQLRGPGGNEDGPQKLDSEADAEPQDLESTNLLESEAPRDYFLKFAYIVDLDSDTADKFLQLFGTKGVKRVLCPINYPLSPTRFTHCEQVLGEGALDRGTYYWEVEIIEGWVSMGVMAEDFSPQEPYDRGRLGRNAHSCCLQWNGRSFSVWFHGLEAPLPHPFSPTVGVCLEYADRALAFYAVRDGKMSLLRRLKASRPRRGGIPASPIDPFQSRLDSHFAGLFTHRLKPAFFLESVDAHLQIGPLKKSCISVLKRR [TRIM47] | 0.521 | 1.84 | -0.052 | 47.8 | 46.7 | 0.0943 |
| MDIRKFFGVIPSGKKLVSETVKKNEKTKSDEETLKAKKGIKEIKVNSSRKEDDFKQKQPSKKKRIIYDSDSESEETLQVKNAKKPPEKLPVSSKPGKISRQDPVTYISETDEEDDFMCKKAASKSKENGRSTNSHLGTSNMKKNEENTKTKNKPLSPIKLTPTSVLDYFGTGSVQRSNKKMVASKRKELSQNTDESGLNDEAIAKQLQLDEDAELERQLHEDEEFARTLAMLDEEPKTKKARKDTEAGETFSSVQANLSKAEKHKYPHKVKTAQVSDERKSYSPRKQSKYESSKESQQHSKSSADKIGEVSSPKASSKLAIMKRKEESSYKEIEPVASKRKENAIKLKGETKTPKKTKSSPAKKESVSPEDSEKKRTNYQAYRSYLNREGPKALGSKEIPKGAENCLEGLIFVITGVLESIERDEAKSLIERYGGKVTGNVSKKTNYLVMGRDSGQSKSDKAAALGTKIIDEDGLLNLIRTMPGKKSKYEIAVETEMKKESKLERTPQKNVQGKRKISPSKKESESKKSRPTSKRDSLAKTIKKETDVFWKSLDFKEQVAEETSGDSKARNLADDSSENKVENLLWVDKYKPTSLKTIIGQQGDQSCANKLLRWLRNWQKSSSEDKKHAAKFGKFSGKDDGSSFKAALLSGPPGVGKTTTASLVCQELGYSYVELNASDTRSKSSLKAIVAESLNNTSIKGFYSNGAASSVSTKHALIMDEVDGMAGNEDRGGIQELIGLIKHTKIPIICMCNDRNHPKIRSLVHYCFDLRFQRPRVEQIKGAMMSIAFKEGLKIPPPAMNEIILGANQDIRQVLHNLSMWCARSKALTYDQAKADSHRAKKDIKMGPFDVARKVFAAGEETAHMSLVDKSDLFFHDYSIAPLFVQENYIHVKPVAAGGDMKKHLMLLSRAADSICDGDLVDSQIRSKQNWSLLPAQAIYASVLPGELMRGYMTQFPTFPSWLGKHSSTGKHDRIVQDLALHMSLRTYSSKRTVNMDYLSLLRDALVQPLTSQGVDGVQDVVALMDTYYLMKEDFENIMEISSWGGKPSPFSKLDPKVKAAFTRAYNKEAHLTPYSLQAIKASRHSTSPSLDSEYNEELNEDDSQSDEKDQDAIETDAMIKKKTKSSKPSKPEKDKEPRKGKGKSSKK [RFC1] | 3.61 | 4.94 | 0.447 | 47.2 | 49.5 | -0.641 |
